Drawing on paper PMC3433420, “Comprehensive Binary Interaction Mapping of SH2 Domains via Fluorescence Polarization Reveals Novel Functional Diversification of ErbB Receptors” (PLoS ONE, 2012), this text covers Kd for one molecule.

Common to all, as to test: peptide or protein array; SH2/PTB proteins spotted on aldehyde slides, rhodamine peptide titrated in buffer B (20 mM HEPES, 100 mM KCl, 0.1% Tween-20, 5 mM DTT, pH 7.8), 1 h at room temperature; replicate assays
Holding throughout (conditions): both partners purified

In assay [1] the target is T1, ABL1 SH2 domain (human, UniProt P00519 127-217).
T1 construct: ABL1, human; source: bacterial expression, purified
T1 sequence (looked up): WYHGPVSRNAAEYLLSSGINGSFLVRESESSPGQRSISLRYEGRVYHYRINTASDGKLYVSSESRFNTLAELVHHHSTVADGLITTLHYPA

Assay [2] has as its target T2, FGR SH2 domain (human, UniProt P09769 144-241).
T2 construct: FGR, human; source: bacterial expression, purified

The target in assay [3] is T3, PTK6 SH2 domain (human, UniProt Q13882 78-170).
T3 construct: PTK6, human; source: bacterial expression, purified
T3 sequence (Q13882 78-170): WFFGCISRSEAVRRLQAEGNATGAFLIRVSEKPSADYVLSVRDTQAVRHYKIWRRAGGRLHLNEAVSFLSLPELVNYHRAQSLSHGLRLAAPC

Assay [4] deals with T4, RASA1 C-terminal SH2 domain (human).
T4 construct: RASA1, human; source: bacterial expression, purified
T4 sequence (P20936 whole entry, looked up): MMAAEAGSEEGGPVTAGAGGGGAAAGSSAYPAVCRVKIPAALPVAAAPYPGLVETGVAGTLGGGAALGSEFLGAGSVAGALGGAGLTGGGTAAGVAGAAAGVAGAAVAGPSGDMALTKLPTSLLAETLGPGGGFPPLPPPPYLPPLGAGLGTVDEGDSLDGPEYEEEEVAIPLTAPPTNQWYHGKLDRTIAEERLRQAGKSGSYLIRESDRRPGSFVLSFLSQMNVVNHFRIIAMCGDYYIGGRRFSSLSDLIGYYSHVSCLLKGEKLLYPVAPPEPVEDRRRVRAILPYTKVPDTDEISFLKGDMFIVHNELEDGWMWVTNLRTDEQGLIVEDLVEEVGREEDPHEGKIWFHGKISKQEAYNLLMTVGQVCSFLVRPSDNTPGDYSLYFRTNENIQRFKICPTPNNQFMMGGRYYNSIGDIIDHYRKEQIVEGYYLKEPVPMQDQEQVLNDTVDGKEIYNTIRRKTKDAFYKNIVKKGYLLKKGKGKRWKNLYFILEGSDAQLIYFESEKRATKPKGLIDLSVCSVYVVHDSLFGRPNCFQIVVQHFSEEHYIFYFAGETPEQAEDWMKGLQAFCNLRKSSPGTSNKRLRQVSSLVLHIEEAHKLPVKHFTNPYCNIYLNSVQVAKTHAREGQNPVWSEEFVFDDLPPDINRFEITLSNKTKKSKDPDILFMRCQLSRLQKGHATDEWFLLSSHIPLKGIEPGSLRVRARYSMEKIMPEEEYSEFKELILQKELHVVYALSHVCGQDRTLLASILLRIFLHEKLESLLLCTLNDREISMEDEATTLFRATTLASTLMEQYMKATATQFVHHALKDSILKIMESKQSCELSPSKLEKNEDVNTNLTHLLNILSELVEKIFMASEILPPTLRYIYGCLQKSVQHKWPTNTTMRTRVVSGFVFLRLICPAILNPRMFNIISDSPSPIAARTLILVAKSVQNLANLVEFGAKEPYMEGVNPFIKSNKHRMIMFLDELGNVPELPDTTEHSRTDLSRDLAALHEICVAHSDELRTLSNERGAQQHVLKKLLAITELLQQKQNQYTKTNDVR

Assay [5] concerns the target T5, SH2B3 SH2 domain (human, UniProt Q9UQQ2 364-462).
T5 construct: SH2B3, human; source: bacterial expression, purified

Assay [6] deals with T6, SH3BP2 SH2 domain (human, UniProt P78314 457-555).
T6 construct: SH3BP2, human; source: bacterial expression, purified
T6 sequence (looked up): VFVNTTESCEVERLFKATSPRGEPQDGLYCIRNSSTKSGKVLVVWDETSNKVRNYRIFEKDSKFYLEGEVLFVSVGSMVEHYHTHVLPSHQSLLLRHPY

For assay [7], the target named is T7, TNS3 SH2 domain (human, UniProt Q68CZ2 1172-1282).
T7 construct: TNS3, human; source: bacterial expression, purified
T7 sequence (looked up): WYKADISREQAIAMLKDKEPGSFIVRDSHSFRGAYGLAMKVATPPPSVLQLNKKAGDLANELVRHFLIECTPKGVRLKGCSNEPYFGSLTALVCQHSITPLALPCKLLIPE

Values joined by “and” are separate entries in the source; they are usually repeats but may differ in a detail not shown here. Identical values can stand only once. Non-standard residues stand in square brackets, D forms with d. No end group written: not given here. pY = N[C@@H](Cc1ccc(OP(=O)(O)O)cc1)C(=O)O; Rhodamine = not defined here

T5 sequence (Q9UQQ2 364-462): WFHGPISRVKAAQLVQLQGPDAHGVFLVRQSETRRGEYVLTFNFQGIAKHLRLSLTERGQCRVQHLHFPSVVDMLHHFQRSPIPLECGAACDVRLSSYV

B1: ErbB2 pY1127 phosphopeptide, rhodamine-labelled, for protein microarrays (peptide)
chain: Rhodamine-ETDG[pY]VAPLTCSD
modifications: reading uncertain
By Kd is commonly meant a measure of binding affinity in units of concentration. High values mean weaker binding, low ones tighter binding. With B1, the Kd in assay [1] is 529 nM and 301 nM; in assay [2] it was 5180 nM; in assay [3], 4180 nM and 1570 nM; in assay [4] it was 1210 nM; in assay [5], 1380 nM and 2300 nM; in assay [6], 1140 nM and 2860 nM. In assay [7], this molecule had a Kd of 5960 nM.
